According to patent US20050009149A1:
Where “and” joins values, the source holds several entries; their conditions need not be identical. Equal values may be shown once.

Assays:
[1] = molecular target: zTNF4 (UniProt Q9Y275); experiment: cell-based or functional assay
[2] = molecular target: human TACI on Jurkat TACI KZ142 Luciferase cells (human) (UniProt O14836); experiment: cell-based or functional assay
Chain of UniProt O14836 (O14836 whole entry): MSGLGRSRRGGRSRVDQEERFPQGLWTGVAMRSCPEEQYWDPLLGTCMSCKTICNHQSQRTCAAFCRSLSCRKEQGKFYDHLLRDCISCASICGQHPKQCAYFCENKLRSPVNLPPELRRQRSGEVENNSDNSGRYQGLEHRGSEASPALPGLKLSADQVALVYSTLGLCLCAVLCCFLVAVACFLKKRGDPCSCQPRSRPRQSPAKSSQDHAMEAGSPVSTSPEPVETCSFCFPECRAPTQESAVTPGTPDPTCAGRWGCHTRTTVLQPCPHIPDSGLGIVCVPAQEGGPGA

EC50, inhibition of zTNF4-stimulated human B-cell proliferation (3H-thymidine incorporation) [1]	fold effectiveness against TACI-Fc5, inhibition of zTNF4-induced B-cell proliferation [1]	fold efficiency at inhibiting zTNF4-stimulated proliferation of human B-cells [1]	luciferase responsiveness of Jurkat TACI KZ142 Luciferase cells [2]	Substance
0.057 nM	19 times	10 fold	–	TACI-NC1 (fusion of an extracellular domain of TACI and the NC1 domain of human collagen X, with Glu-Glu tag)
1.1 nM	–	–	–	TACI-Fc fusion protein (from UniProt O14836 1-165)
–	–	–	18 fold and 10 fold	zTNF4 (from UniProt Q9Y275 134-285) (ligand)
